# Biological target: human CD4 antigen (human) (UniProt P01730)
# Test: competition with F1-OKT4A tracer on HPB-ALL cells, flow cytometry
row,Log conc. competitor (pM) at 50% inhibition [log pM],Substance
1,2.9,chimeric OKT4A (chimeric light chain and chimeric heavy chain) (antibody)
2,2.4,murine OKT4A (antibody)

# — US20020099179A1
